The values that follow come from PMC11211324 (2024).

This assay addresses KRAS-LgBiT (UniProt P01116 1-189). Briefly: NanoBiT in 293T cells.

Sequence of KRAS-LgBiT (P01116 whole entry): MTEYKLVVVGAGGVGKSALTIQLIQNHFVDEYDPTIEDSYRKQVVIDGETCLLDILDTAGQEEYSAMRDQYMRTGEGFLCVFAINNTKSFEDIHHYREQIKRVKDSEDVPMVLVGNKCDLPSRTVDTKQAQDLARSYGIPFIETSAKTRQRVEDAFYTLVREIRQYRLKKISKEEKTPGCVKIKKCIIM

B1: TKD (nanobody)-SmBiT (VHH)
VHH: DVQLQESGGGLVQAGGSLRLSCVASGRTFSTYPTGWFRQAPGKEREFVARINLSGGITNYADSVKGRFTISRDNAKNTVYLQMNSLKPEDTAVYYCGGGSTTWAGGIPTNFDYWGQGTQVTVSS
B1: the Kd was found to be 41.3 nM. In other words, the double-digit nanomolar range.
